Measured values published in publication PMC9352680, “A comprehensive thermodynamic model for RNA binding by the Saccharomyces cerevisiae Pumilio protein PUF4”.

T1: PUF4 RNA-binding domain (Saccharomyces cerevisiae, UniProt P25339 537-888)
T1 sequence: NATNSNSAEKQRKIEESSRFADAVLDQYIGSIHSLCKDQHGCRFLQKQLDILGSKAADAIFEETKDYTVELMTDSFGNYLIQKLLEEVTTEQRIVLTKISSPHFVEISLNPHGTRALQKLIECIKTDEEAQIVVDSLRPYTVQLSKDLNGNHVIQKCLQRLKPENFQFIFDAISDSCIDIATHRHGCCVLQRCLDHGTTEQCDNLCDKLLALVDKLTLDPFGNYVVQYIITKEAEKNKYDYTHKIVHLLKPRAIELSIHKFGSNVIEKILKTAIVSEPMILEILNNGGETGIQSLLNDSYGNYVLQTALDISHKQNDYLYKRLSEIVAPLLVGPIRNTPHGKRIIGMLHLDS

B1: Ic_S2_P3E.1_K3.1_C3.1_H3.1_A3.1_F3.1_[A8T]_T3.1 (ssRNA)
RNA: UUUGAUUAAUAUGAUAUCGUUCUUUCUUGUAUAUUUUCUUUCUCGAUAUCAUAUUAAUCUUU

These binders were tested against T1, PUF4 RNA-binding domain (assay: Mg; RNA-MaP; 20 mM Na-HEPES pH 7.4, 30 mM KOAc, 0.75 mM MgCl2, 0.1% Tween-20, 5% glycerol, 0.1 mg/mL BSA, 2 mM DTT; 25 C; 0.0125-409.6 nM protein). Conditions: tags: N-His6-TEV cleaved; C-SNAP kept, Cy3B-labelled; label: tethered on chip by stalled RNA polymerase.

Binder	Kd [nM]
UCUCUUCUUGUUAUAUAUAUCUCUU (ssRNA) [Ie_S1_P3E.2_K3.1_C3.2_H3.1_[+2T]_A3.1_F3.1_T3.2]	29.7
UCUCUUUGUAUCCUUAUCUCUU (ssRNA) [Ib_S1_P5E.1_K5.1_C5.1_H5.1_A5.1_[T6C]_[A7C]_F5.1_T5.1]	9.16
UCUCUUCUUGUCCUCUAUAUAUAUCUCUU (ssRNA) [Ie_S1_P3E.2_K3.1_C3.2_H3.1_[+3CCTCT]_A3.1_F3.1_T3.2]	139
UCUCUUCUUGUAUAUUCCAUAUCUCUU (ssRNA) [Ie_S1_P3E.2_K3.1_C3.2_H3.1_A3.1_F3.1_[+7TCC]_T3.2]	9.71
UCUCUUCUUGUAUUAUAUAUCUCUU (ssRNA) [Ie_S1_P3E.2_K3.1_C3.2_H3.1_A3.1_[+5T]_F3.1_T3.2]	2.15
UCUCUUCUUGUACCUCUAUAUAUCUCUU (ssRNA) [Ie_S1_P3E.2_K3.1_C3.2_H3.1_[+4CCTC]_A3.1_F3.1_T3.2]	12.4
UCUCUUCUUGUAUAUUCAUAUCUCUU (ssRNA) [Ie_S1_P3E.2_K3.1_C3.2_H3.1_A3.1_F3.1_[+7TC]_T3.2]	10.3
B1	1.67
UCUCUUCUUGUUUCCUAUAUAUAUCUCUU (ssRNA) [Ie_S1_P3E.2_K3.1_C3.2_H3.1_[+3TTCCT]_A3.1_F3.1_T3.2]	106
UCUCUUUGUAUGCUUAUCUCUU (ssRNA) [Ic_S1_P5E.1_K5.1_C5.1_H5.1_A5.1_[T6G]_[A7C]_F5.1_T5.1]	32
UCUCUUCUUGUACUUAUAUAUCUCUU (ssRNA) [Ie_S1_P3E.2_K3.1_C3.2_H3.1_[+4CT]_A3.1_F3.1_T3.2]	6.52
UCUCUUCUUGUCCCUAUAUAUAUCUCUU (ssRNA) [Ie_S1_P3E.2_K3.1_C3.2_H3.1_[+3CCCT]_A3.1_F3.1_T3.2]	454
UCUCUUCUUGUACUCUUAUAUAUCUCUU (ssRNA) [Ie_S1_P3E.2_K3.1_C3.2_H3.1_[+4CTCT]_A3.1_F3.1_T3.2]	9.53
UCUCUUCUUGUUCUCUAUAUAUAUCUCUU (ssRNA) [Ie_S1_P3E.2_K3.1_C3.2_H3.1_[+3TCTCT]_A3.1_F3.1_T3.2]	68.4
UCUCUUCUUGCUCUUAUAUAUAUCUCUU (ssRNA) [Ie_S1_P3E.2_K3.1_C3.2_H3.1_[+2CTCT]_A3.1_F3.1_T3.2]	824
UCUCUUCUUGCCUUAUAUAUAUCUCUU (ssRNA) [Ie_S1_P3E.2_K3.1_C3.2_H3.1_[+2CCT]_A3.1_F3.1_T3.2]	1510
UCUCUUCUUGUCUCUAUAUAUAUCUCUU (ssRNA) [Ie_S1_P3E.2_K3.1_C3.2_H3.1_[+2TCTC]_A3.1_F3.1_T3.2]	456
UCUCUUCUUGUAUAUCUCAUAUCUCUU (ssRNA) [Ie_S1_P3E.2_K3.1_C3.2_H3.1_A3.1_F3.1_[+7CTC]_T3.2]	24.7
UCUCUUUGUAUCUUUAUCUCUU (ssRNA) [Ib_S1_P5E.1_K5.1_C5.1_H5.1_A5.1_[T6C]_[A7T]_F5.1_T5.1]	6.01
UCUCUUCUUGUAUAUCUCUCAUAUCUCUU (ssRNA) [Ie_S1_P3E.2_K3.1_C3.2_H3.1_A3.1_F3.1_[+7CTCTC]_T3.2]	28.5
UCUCUUCUUGUACCUAUAUAUCUCUU (ssRNA) [Ie_S1_P3E.2_K3.1_C3.2_H3.1_[+4CC]_A3.1_F3.1_T3.2]	17.6

Binder	Kd [nM]
UCUCUUCUUGUAUAUACCUUAUCUCUU (ssRNA) [Ie_S1_P3E.2_K3.1_C3.2_H3.1_A3.1_F3.1_[+8CCT]_T3.2]	8.91
UCUCUUCUUUCUCUGUAUAUAUAUCUCUU (ssRNA) [Ie_S1_P3E.2_K3.1_C3.2_H3.1_[+1TCTCT]_A3.1_F3.1_T3.2]	4.87
UCUCUUCUUGUCUAUAUAUAUCUCUU (ssRNA) [Ie_S1_P3E.2_K3.1_C3.2_H3.1_[+2TC]_A3.1_F3.1_T3.2]	844
UCUCUUCUUGUACCCUAUAUAUCUCUU (ssRNA) [Ie_S1_P3E.2_K3.1_C3.2_H3.1_[+4CCC]_A3.1_F3.1_T3.2]	8.38
UCUCUUUGUAUGGUUAUCUCUU (ssRNA) [Ib_S1_P5E.1_K5.1_C5.1_H5.1_A5.1_[T6G]_[A7G]_F5.1_T5.1]	37.1
UCUCUUCUUUUCCUGUAUAUAUAUCUCUU (ssRNA) [Ie_S1_P3E.2_K3.1_C3.2_H3.1_[+1TTCCT]_A3.1_F3.1_T3.2]	5.37
UCUCUUCUUGUUCCAUAUAUAUCUCUU (ssRNA) [Ie_S1_P3E.2_K3.1_C3.2_H3.1_[+3TCC]_A3.1_F3.1_T3.2]	26.1
UCUCUUCUUGUACUAUAUAUCUCUU (ssRNA) [Ie_S1_P3E.2_K3.1_C3.2_H3.1_[+4C]_A3.1_F3.1_T3.2]	1.5
UCUCUUCUUGUACUCUCUAUAUAUCUCUU (ssRNA) [Ie_S1_P3E.2_K3.1_C3.2_H3.1_[+4CTCTC]_A3.1_F3.1_T3.2]	31
UCUCUUCUUCUCUCGUAUAUAUAUCUCUU (ssRNA) [Ie_S1_P3E.2_K3.1_C3.2_H3.1_[+1CTCTC]_A3.1_F3.1_T3.2]	512
UCUCUUCUUGCCCUUAUAUAUAUCUCUU (ssRNA) [Ie_S1_P3E.2_K3.1_C3.2_H3.1_[+2CCCT]_A3.1_F3.1_T3.2]	1190
UCUCUUUGUAAUUUUAUCUCUU (ssRNA) [Ib_S1_P5E.1_K5.1_C5.1_H5.1_A5.1_[T5A]_[A7T]_F5.1_T5.1]	5.31
UCUCUUCUUGUCCUCAUAUAUAUCUCUU (ssRNA) [Ie_S1_P3E.2_K3.1_C3.2_H3.1_[+3CCTC]_A3.1_F3.1_T3.2]	798
UCUCUUCUUGUUUUAUAUAUAUCUCUU (ssRNA) [Ie_S1_P3E.2_K3.1_C3.2_H3.1_[+2TTT]_A3.1_F3.1_T3.2]	27.9
UCUCUUCUUGCCUCUUAUAUAUAUCUCUU (ssRNA) [Ie_S1_P3E.2_K3.1_C3.2_H3.1_[+2CCTCT]_A3.1_F3.1_T3.2]	1680
UCUCUUCUUGUCAUAUAUAUCUCUU (ssRNA) [Ie_S1_P3E.2_K3.1_C3.2_H3.1_[+3C]_A3.1_F3.1_T3.2]	67
UCUCUUCUUGUCCAUAUAUAUCUCUU (ssRNA) [Ie_S1_P3E.2_K3.1_C3.2_H3.1_[+3CC]_A3.1_F3.1_T3.2]	822
UCUCUUCUUGUAUAUCCCAUAUCUCUU (ssRNA) [Ie_S1_P3E.2_K3.1_C3.2_H3.1_A3.1_F3.1_[+7CCC]_T3.2]	37.9
UCUCUUCUUGUUCCUAUAUAUAUCUCUU (ssRNA) [Ie_S1_P3E.2_K3.1_C3.2_H3.1_[+2TTCC]_A3.1_F3.1_T3.2]	104
UCUCUUCUUGUAUAUUUCAUAUCUCUU (ssRNA) [Ie_S1_P3E.2_K3.1_C3.2_H3.1_A3.1_F3.1_[+7TTC]_T3.2]	6.46
UCUCUUUGUAUCGUUAUCUCUU (ssRNA) [Ib_S1_P5E.1_K5.1_C5.1_H5.1_A5.1_[T6C]_[A7G]_F5.1_T5.1]	14.4

Binder	Kd [nM]
UCUCUUCUUGUAUAUAUUAUCUCUU (ssRNA) [Ie_S1_P3E.2_K3.1_C3.2_H3.1_A3.1_F3.1_[+8T]_T3.2]	5.64
UCUCUUCUUGUAUACUAUAUCUCUU (ssRNA) [Ie_S1_P3E.2_K3.1_C3.2_H3.1_A3.1_[+6C]_F3.1_T3.2]	0.878
UCUCUUCUUGUAUCAUAUAUCUCUU (ssRNA) [Ie_S1_P3E.2_K3.1_C3.2_H3.1_A3.1_[+5C]_F3.1_T3.2]	1.6
UCUCUUCUUGUAUAUACUUAUCUCUU (ssRNA) [Ie_S1_P3E.2_K3.1_C3.2_H3.1_A3.1_F3.1_[+8CT]_T3.2]	9.04
UCUCUUCUUGUUCAUAUAUAUCUCUU (ssRNA) [Ie_S1_P3E.2_K3.1_C3.2_H3.1_[+3TC]_A3.1_F3.1_T3.2]	98.7
UCUCUUCUUGUACUCUAUAUAUCUCUU (ssRNA) [Ie_S1_P3E.2_K3.1_C3.2_H3.1_[+4CTC]_A3.1_F3.1_T3.2]	3.95
UCUCUUCUUGUAUAUAUCUAUCUCUU (ssRNA) [Ie_S1_P3E.2_K3.1_C3.2_H3.1_A3.1_F3.1_[+8TC]_T3.2]	9.28
UCUCUUCUUGUCCCAUAUAUAUCUCUU (ssRNA) [Ie_S1_P3E.2_K3.1_C3.2_H3.1_[+3CCC]_A3.1_F3.1_T3.2]	64.7
UCUCUUCUUGUCCUAUAUAUAUCUCUU (ssRNA) [Ie_S1_P3E.2_K3.1_C3.2_H3.1_[+2TCC]_A3.1_F3.1_T3.2]	62.9
UCUCUUCUUGCCUAUAUAUAUCUCUU (ssRNA) [Ie_S1_P3E.2_K3.1_C3.2_H3.1_[+2CC]_A3.1_F3.1_T3.2]	1170
UCUCUUCUUCCUCUGUAUAUAUAUCUCUU (ssRNA) [Ie_S1_P3E.2_K3.1_C3.2_H3.1_[+1CCTCT]_A3.1_F3.1_T3.2]	5.08
UCUCUUCUUGCUCUCUAUAUAUAUCUCUU (ssRNA) [Ie_S1_P3E.2_K3.1_C3.2_H3.1_[+2CTCTC]_A3.1_F3.1_T3.2]	1140
UCUCUUCUUGUCUUAUAUAUAUCUCUU (ssRNA) [Ie_S1_P3E.2_K3.1_C3.2_H3.1_[+3CTT]_A3.1_F3.1_T3.2]	95.5
UCUCUUCUUCCCUGUAUAUAUAUCUCUU (ssRNA) [Ie_S1_P3E.2_K3.1_C3.2_H3.1_[+1CCCT]_A3.1_F3.1_T3.2]	4.02
UCUCUUCUUGUAUAUACUAUCUCUU (ssRNA) [Ie_S1_P3E.2_K3.1_C3.2_H3.1_A3.1_F3.1_[+8C]_T3.2]	8.83
UCUCUUCUUGUAUCCAUAUAUCUCUU (ssRNA) [Ie_S1_P3E.2_K3.1_C3.2_H3.1_A3.1_[+5CC]_F3.1_T3.2]	29.9
UCUCUUCUUGUUUCCAUAUAUAUCUCUU (ssRNA) [Ie_S1_P3E.2_K3.1_C3.2_H3.1_[+3TTCC]_A3.1_F3.1_T3.2]	69.3
UCUCUUCUUGUUCUAUAUAUAUCUCUU (ssRNA) [Ie_S1_P3E.2_K3.1_C3.2_H3.1_[+3TCT]_A3.1_F3.1_T3.2]	53.2
UCUCUUCUUGUACCCUUUAUAUAUCUCUU (ssRNA) [Ie_S1_P3E.2_K3.1_C3.2_H3.1_[+4CCCTT]_A3.1_F3.1_T3.2]	20.6
